Experimental data: patent US20230030950A1 (UNIVERSITY OF QUEENSLAND, published 2023)

Target: T1, Aβ1-42 fibrils (UniProt P05067 672-713)
T1 construct: domain: Aβ1-42; Aggregated (fibrillar) form coated on the ELISA plate; also called fibrillar amyloid-β42; fibrillar Aβ42
Experiment: direct-binding ELISA; plate coated with Aβ1-42 fibrils, serial dilutions of antibody, anti-mouse HRP detection
Experimental: A131-42 fibrils were generated by incubating 0.1 mM A131-42 (JPT Peptide Technologies, Germany) in 10 mM HCl for 3 d at 37° C. A MaxiSorp ELISA plate was coated with […] Aβ₁₋₄₂ fibrils in 0.1M sodium bicarbonate buffer and then blocked with 1% bovine serum albumin.

T1 sequence (P05067 672-713 limits assumed): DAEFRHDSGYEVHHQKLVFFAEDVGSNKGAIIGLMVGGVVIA

B1: 6E10 antibody (antibody, V domains shown)
VH: EVQLQQSGAELVKPGASVKLCTASGFNIKDTYIHWVKQRPEQGLEWIGRFDPVNVNTRYDSRFRGKATITSDASSNTAYLHLNSLTSEDTAVYYCSRSYYNGRRRFTYWGQGTLVTVSA
VL: DIVMTQSPSSLTVTAGEKVALTCKASQSLLSSGNQKNYLTWYQQKPGQPPKLLIYWASIRESGVPDRFTGSGSGTFFTLTISSVQAEDLAVYYCQNDYNYPFTFGSGTKLEIK
- EC50: 1.18 nM
